Test results taken from PMC9653380.
pKd: −log10 of the molar value.

Assays:
[1] = biological target: Fc-tagged human ACE2 (human) (UniProt Q9BYF1); assay: BLI
[2] = biological target: variant S-trimer (prefusion-stabilized SARS-CoV-2 spike trimer, S-6P backbone, with K417N, E484K, N501Y and D614G) (SARS-CoV-2 | bacteriophage T4); assay: SEC

variant S-trimer (prefusion-stabilized SARS-CoV-2 spike trimer, S-6P backbone, with K417N, E484K, N501Y and D614G)
pKd [1]: 8.04 | stoichiometry N [2]: 3
